Test system: Firefly luciferase target RNA
Assay: Dual luciferase reporter assay of paCas13 fragments under blue light stimulation
Assay type: cell-based
Settings: 488 nm blue light for 24 hours
Method: Specifically, to evaluate the changes in protein levels, HEK293T cells (ATCC) were co-transfected with 10 ng of a double luciferase reporter plasmid (Promega), 75 ng of each inducible Cas13 fragment expressing the plasmid, and 100 ng of a crRNA expression plasmid. 16 hours prior to transfection, the cells were placed in a 96-well plate (Corning) and allowed to grow until reaching 80% confluency. On the next day, 10 μL of Opti-MEM and 10 μL of Opti-MEM containing 0.6 μL of lipofectamine LTX and 0.26 μL of PLUS reagent and all transfected DNA plasmids were mixed, and a total of 20 μL of Opti-MEM I reducing serum medium (ThermoFisher) was added to each well. All solutions were incubated for 5 minutes before slowly added to the cells. […] The experiment was performed in triplicate. The decrease in the target RNA, the Firefly transcript, was confirmed by comparing the expression value at the protein level of the control group Renilla.
Luciferase reporter assay was performed to confirm whether the Cas13b protein was activated by light stimulation when the construct designed in Example 3 was used.
To test the light-inducible RNA targeting of paCas13, the target RNA knockdown activity of paCas13 fragments was evaluated using a dual luciferase system under the blue light stimulation for 24 hours with an LED plate emitting 488 nm of blue light (FIG. 8). […]

Target mRNA cleavage with pMag in combination with dimerization partner: Efficient target mRNA cleavage was seen
B1: nMagH: paCas13 fragments fused with pMag and nMagH (nMag with M135I and M165I mutations) (protein)
chain: HTLYAPGGYDIMGYLDQIGNRPNPQVELGPVDTSCALILCDLKQKDTPIVYASEAFLYMTGYSNAEVLGRNCRFLQSPDGMVKPKSTRKYVDSNTINTIRKAIDRNAEVQVEVVNFKKNGQRFVNFLTIIPVRDETGEYRYSMGFQCETE
modifications: nMagHigh1 amino acid sequence

From patent publication US12709742B2, “RNA expression modulating or editing method via regulation of Cas13 protein” (Korea Advanced Institute of Science and Technology, priority 2021, dated 2026)
